Laboratory results: PMC9251408 (2022)

T1: IL-10 receptor alpha (Mus musculus, UniProt Q61727)
T1 chain: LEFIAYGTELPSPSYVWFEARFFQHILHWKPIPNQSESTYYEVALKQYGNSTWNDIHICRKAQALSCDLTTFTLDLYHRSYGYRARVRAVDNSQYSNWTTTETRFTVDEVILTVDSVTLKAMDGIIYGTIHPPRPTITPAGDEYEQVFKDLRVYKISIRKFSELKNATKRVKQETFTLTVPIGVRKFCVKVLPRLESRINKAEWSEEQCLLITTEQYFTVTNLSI

T2: IL-10 receptor alpha (Homo sapiens, UniProt Q13651)
T2 chain: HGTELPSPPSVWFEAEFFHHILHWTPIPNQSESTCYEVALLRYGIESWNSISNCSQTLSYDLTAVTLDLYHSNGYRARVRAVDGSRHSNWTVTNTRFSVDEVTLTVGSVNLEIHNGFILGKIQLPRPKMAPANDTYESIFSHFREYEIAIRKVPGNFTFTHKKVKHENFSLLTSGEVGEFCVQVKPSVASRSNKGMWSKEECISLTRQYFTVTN

B1: mFc-mIL-10 (mouse IL-10 mouse Fc-fusion) (protein)
chain: SRGQYSREDNNCTHFPVGQSHMLLELRTAFSQVKTFFQTKDQLDNILLTDSLMQDFKGYLGCQALSEMIQFYLVEVMPQAEKHGPEIKEHLNSLGEKLKTLRMRLRRCHRFLPCENKSKAVEQVKSDFNKLQDQGVYKAMNEFDIFINCIEAYMMIKMKS
modifications: IL-10 fused to C-terminus of effector-reduced mouse Fc via Gly-Ser linker
B2: hFc-hIL-10 (human IL-10 human Fc-fusion) (protein)
chain: SPGQGTQSENSCTHFPGNLPNMLRDLRDAFSRVKTFFQMKDQLDNLLLKESLLEDFKGYLGCQALSEMIQFYLEEVMPQAENQDPDIKAHVNSLGENLKTLRLRLRRCHRFLPCENKSKAVEQVKNAFNKLQEKGIYKAMSEFDIFINYIEAYMTMKIRN
modifications: IL-10 fused to C-terminus of effector-reduced human Fc via Gly-Ser linker

Tests used:
IL-10 receptor alpha [1] = target: T1, IL-10 receptor alpha
IL-10 receptor alpha [2] = target: T2, IL-10 receptor alpha

Row | Binder | Kd (IL-10 receptor alpha [1]) [nM] | Kd (IL-10 receptor alpha [2]) [nM]
1 | B1 | 3.2 | –
2 | B2 | 2.9 | 0.6
